Reference: PMC10127692

Experiments:
Assay in all cases: two-hybrid
[1] = molecular target: SUD2-N (K412 to E548 of SARS-CoV-2 Nsp3), two-hybrid bait (SARS-CoV-2)
[2] = molecular target: SUD2-M (I549 to S675 of SARS-CoV-2 Nsp3), two-hybrid bait (SARS-CoV-2)
[3] = molecular target: BD-SUD2_(core) (SUD2-N+M, K412 to S675 of SARS-CoV-2 Nsp3, fused to the DNA binding domain) (SARS-CoV-2)

Substance: AD-Nsp5 (Nsp5 of SARS-CoV-2 fused to the activation domain) (from UniProt P0DTD1 3264-3569) (enzyme)
- LacZ reporter activity compared with SUD2-N+M [1]: 47%
- LacZ reporter activity compared with SUD2-N+M [2]: 86%

Substance: AD-Nsp5 (Nsp5 of SARS-CoV-2 fused to the activation domain) (from UniProt P0DTD1 3264-3569)
- fold LacZ reporter induction against full-length SUD2 [3]: 2.1 fold
